B1: TRIM43 (parent)
chain: YQEIFQQLQRSWVKMDQKSKHLKE

Variants of: B1
Test: protein stability index of a GFP-peptide fusion (GPS, HEK-293T) (PSI 1-6); higher = more stable
Conditions: c terminus: a fixed tail appended
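Further: lentivirally expressed fusions sorted by FACS into six bins by GFP to DsRed ratio, PSI derived from sequencing read proportions per bin multiplied by bin number.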

Protein stability index, by site and new letter:
K23: C 1.74, A 2.92, Q 2.11, G 2.54, V 1.92, N 2.03, F 1.47, H 1.79, R 1.22, M 2.33, E 2.6, Y 1.58, P 2.08, S 2.15, I 3.31, D 2.41, L 1.66, W 2.33, T 2.14
E24: V 1.81, M 1.71, W 2.41, G 1.78, K 1.99, H 2.33, C 2.13, T 1.91, L 2.45, F 1.92, S 2.78, Y 1.95, Q 1.57, R 1.8, D 2.48, A 1.89, N 2.28, P 1.81, I 1.78
L22: I 2.21, F 1.91, T 2.62, Y 1.92, V 2.39, M 2.13, G 2.6, K 2.45, H 2.35, R 2.75, P 2.94, S 3.29, W 1.65, N 2.53, Q 2.91
